How the values were obtained:
Conditions in all cases: source organism: Human immunodeficiency virus type 1 (JRCSF ISOLATE)
HLA-A*03:01 [1] = test: IEDB peptide-MHC binding, purified MHC/competitive/radioactivity; ≥ and ≤ were set here for values at or beyond the usual limits of such assays
HLA-A*11:01 [2] = test: as above
HLA-A*03:01 [3] = test: IEDB peptide-MHC binding, purified MHC/competitive/radioactivity; filed as Kd, often an IC50 or EC50 that approximates it; ≥ and ≤ were set here for values at or beyond the usual limits of such assays
HLA-A*11:01 [4] = test: as above

Sequence	IC50 (HLA-A*03:01 [1])	IC50 (HLA-A*11:01 [2])	Kd (HLA-A*03:01 [3])	Kd (HLA-A*11:01 [4])
AIFQSSMTK	0.01 µM	–	–	–
AVFIHNFKR	0.0647 µM	0.0033 µM	–	–
KIQNFRVYYR	0.344 µM	–	–	–
MAVFIHNFK	0.647 µM	0.02 µM	–	–
MTKILEPFR	–	–	13.8 µM	–
MVHQAISPR	0.0611 µM	0.0896 µM	–	–
NTPVFAIKK	0.333 µM	0.1 µM	–	–
QMAVFIHNFK	0.0092 µM	–	–	–
QMVHQAISPR	0.423 µM	–	–	6 µM
TIKIGGQLK	0.0407 µM	0.182 µM	–	–
TLFCASDAK	0.118 µM	–	–	–
TTLFCASDAK	0.12 µM	0.0273 µM	–	–
YLAWVPAHK	0.143 µM	–	–	–

From the Immune Epitope Database (IEDB)
